For orientation: EC50 means the midpoint of the concentration-response curve.

The values that follow come from patent US20110223178A1 (Human Genome Sciences, published 2011).

Residue numbers refer to the chain shown, from its start.

B1: IgG1 antibody comprising the VH and VL domains of scFv F003F01 (antibody, V domains shown)
VH: EVQLVQSGAEVRKPASSVKVSCKTSGGSFNDYSFNWVRQAPGQGLEWMGSIIPVFDMADYGQNFQGRLTITADESTTTAYMELSDLTPMDTAIYYCARVAMVGATHFDIWGQGTLVTVSS
VL: QSVLTQPPSASGTPGQRVTISCSGGSSNIGSNPVNWYQQVPGTAPKLLIYLSDQRPAGVPDRFSGSKSGTSASLAISGLQSEDEADYYCSTWDDSLNDPVVFGGGTKVTVLG
notes: IgG1; The printed VL start (142) looks late against the printed VL CDR1 (159-171)
B2: IgG1 antibody comprising the VH and VL domains of scFv F076G06 (antibody, V domains shown)
VH: QMQLVQSGAEVRKPGSSVKVSCKASGDTFNNFAISWVRQAPGHGLEWVGGIIPVFNTADYAQNFTGRVTISADKATKTVYMELRSLRYDDTAVYFCARTKIELDNDAFDIWGQGTMVTVSS
VL: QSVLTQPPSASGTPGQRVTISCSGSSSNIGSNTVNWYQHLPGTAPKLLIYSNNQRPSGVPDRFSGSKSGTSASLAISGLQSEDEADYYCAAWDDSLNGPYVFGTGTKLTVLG
notes: IgG1
B3: IgG1 antibody comprising the VH and VL domains of scFv F003A09 (antibody, V domains shown)
VH: B2 VH with M2V, R12K, P14A, N30S, G66D, Y88S, M116L
VL: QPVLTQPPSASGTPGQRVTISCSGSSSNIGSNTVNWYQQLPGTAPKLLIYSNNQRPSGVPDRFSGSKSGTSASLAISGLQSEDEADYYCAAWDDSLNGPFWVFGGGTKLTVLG
notes: Whole IgG1
B4: IgG1 antibody comprising the VH and VL domains of scFv F076C06 (antibody, V domains shown)
VH: QVQLVQSGPEVKKPGSSVKVSCRASGGTFSTYAFSWVRQAPGQGLEWMGGIIPVFETPIYAQKLQGRLTITADTSTDTAYMELSNLRSGDTAVYYCAREWGDYYSSVSSGALHYWGRGTLVTVSS
VL: QAVLTQPSSASGTPGQRVTISCSGSSSNIGNNAVNWYQQLPGTAPKLLIYNNNQWPSGVPDRFSGSKSGTSASLAVSGLQSEDEADYYCAAWDDSLNGYVFGTGTQLTVLS
notes: IgG1
B5: IgG1 antibody comprising the VH and VL domains of scFv F002C08 (antibody, V domains shown)
VH: EVQLVESGAEVKKPGSSVKVSCKASGGTFSSYAISWVRQAPGQGLEWMGGIIPIFGTANYAQKFQGRVTITADESTSTAYMELSSLGSEDTAVYYCARESLTGDSELDLWGKGTLVTVSS
VL: QSVLTQPPSVSAAPGQKVTISCSGSTSNIGNNYVSWYQQHPGKAPKLMIYDVSKRPSGVPDRFSGSKSGNSASLDISGLQSEDEADYYCAAWDDSLSEFLFGTGTKLTVLG
notes: IgG1
B6: IgG1 antibody comprising the VH and VL domains of scFv F002D02 (antibody, V domains shown)
VH: EVQLVQSGAEVKKPGSSVKVSCKASGGTFSSYAISWVRQAPGQGLEWMGGIIPIFGTANYAQKFQGRVTITADESTSTAYMELSSLRSEDTAVYYCAREDIVGAVDGFDIWGRGTLVTVSS
VL: B5 VL
notes: IgG1
B7: IgG1 antibody comprising the VH and VL domains of scFv F002G03 (antibody, V domains shown)
VH: QVQLVQSGAEVKKPGSSVKVSCKASGGTFNRYAISWVRQAPGQGLEWMGGIIPMFATPIYSQKFQDRVTITADESTSTAYMELSSLRSEDTAVYYCARDRTDYYDTDGYQSPDSWGKGTLVTVSS
VL: DIQMTQSPSTLSASIGDRVTITCRASQGINNYLAWYQQKPGRAPKLLIYAASSLQSGVPSRFSGSGSGTDFTLTISSLQPEDFATYYCLQDSDYPLTFGGGTKLEIKR
notes: Whole IgG1
B8: IgG1 antibody comprising the VH and VL domains of scFv F003F09 (antibody, V domains shown)
VH: B2 VH with Q1E, M2V, Q113R, M116T
VL: LPVLTQPPSASGTPGQRVTISCSGSTSNIGSNAVVWYQQLPGAAPKLLIYSNDQRPSGVPDRFSGSRSGTSASLAISGLQSEDEADYYCAAWDDSRDGPWVFGGGTKVTVLG
notes: Whole IgG1
B9: IgG1 antibody comprising the VH and VL domains of scFv F076F10 (antibody, V domains shown)
VH: EVQLVQSGAEVKKPGSSVKVFCKTSGGTFSSYAFGWVRQRPGQGLEWMGGIIPNFDAANYAQKFQDTVAFTADTSTNTLYLELSSLTSDDTAVYYCAREVGVHASGLGAFDIWGRGTLVTVSS
VL: QSVLTQPPSVSGAPRQRVTISCSGSSSNIGDNVVNWYQQLPGKAPKLLIYYDDLLPSGVSDRFSGSKSGTSASLAISGLQSEDEADYFCAAWDDSLDAYVFGTRTKVTVLG
notes: Whole IgG1; also called F0076F10
B10: IgG1 antibody comprising the VH and VL domains of scFv F081C09 (antibody, V domains shown)
VH: QVQLVQSGAEVKKPGSSVRVSCKASGGSFSDYAIHWVRQAPGQGLEWMGGIIPIFGTANYAQKFQGRVTITADESTSTAYMELSSLRSEDTAVYYCAREAQYDDAFDIWGQRTMVTVSS
VL: B5 VL
notes: Whole IgG1; also called F0081C09

T1 sequence (P78556 27-96 limits assumed): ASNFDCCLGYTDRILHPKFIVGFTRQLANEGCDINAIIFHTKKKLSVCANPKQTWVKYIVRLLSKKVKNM

One experiment addresses T1, Chemokine beta-4 (CK-β4) (human, UniProt P78556 27-96, 125I label in the CCR6 membrane binding assay (Example 5)).
T1 construct: also called CCL20; MIP-3α
Briefly: inhibition of 125I-CK-β4 binding to CCR6 membranes by IgG1, Expt 3. On the procedure:
(§1) The ability of anti-CK-β4 antibodies of the invention to inhibit the binding of CK-β4 to CCR6 may be tested in the following assay. This assay is performed in 96-well plates and each sample is tested in triplicate. A 1:3 serial dilution of anti-CK-β4 antibody is made starting with 200 nM solution of anti-CK-β4 antibody in binding buffer (50 mM HEPES, pH7.0, 5 mM MgCl₂, 1 mM CaCl₂, 0.5% protease free BSA, 0.033% CHAPS, 0.05% Tween 20, 0.05% sodium azide). To fifty microliters of each dilution of antibody are added 25 microliters of CCR6 membranes (40 micrograms/ml in binding buffer; available from Upstate Biotechnology, Charlottesville, Va. Catalog number 50-139M.) Lastly 25 microliters of ¹²⁵I-CK-β4 (0.8 nM in binding buffer) are added to the wells containing the mixture of antibody and membranes, making for a 100 microliter reaction volume. Total binding is measured using 50 microliters of binding buffer in lieu of 50 microliters of antibody dilution.
(§2) The reaction is incubated for 3 hours at room temperature. The plates are harvested in a Tomtec Cell Harvester. The reaction is washed through a filtermat B (Perkin Elmer Life Sciences, Inc. Boston, Mass. product Number 1450-521) presoaked in 0.3% polyethylamine using an ice cold wash buffer (25 mM Hepes, 5 mM MgCl₂, 1 mM CaCl₂, 0.5M NaCl, and 0.05% Tween 20). The filter is then dried and radioactivity bound to the filter is measured using a Wallac MicroBeta Trilux (Perkin Elmer Life Sciences, Inc.).
In turn, B1 yielded an EC50 of 0.13 nM. For the molecule B2, it took 1.7 nM to reach a half-maximal effect (EC50). For the molecule B3, the concentration giving a half-maximal response (EC50) is 0.46 nM. For B4, a half-maximal response (EC50) required 1.8 nM. On to B5, for which the 50% effective concentration (EC50) was 2.2 nM. Take B6: the midpoint of the response, the EC50, lay at 4.5 nM.

Another experiment concerns the target T1, Chemokine beta-4 (CK-β4). The experiment is described as follows: inhibition of 125I-CK-β4 binding to CCR6 membranes by IgG1, Expt 1. The protocol: as §1, §2
B1: it took 0.2 nM to reach a half-maximal effect (EC50). Molecule B3 gave an EC50 of 0.3 nM. The EC50 values of the last two molecules are within 1.5-fold of each other. B7 returned a concentration for a half-maximal effect (EC50) of 4.1 nM.

The target of another experiment is T1, Chemokine beta-4 (CK-β4). Briefly: inhibition of 125I-CK-β4 binding to CCR6 membranes by IgG1, Expt 2. The protocol: as §1, §2
As to B8, the concentration for a half-maximal effect (EC50) is 2.4 nM. Regarding B9, the concentration giving a half-maximal response (EC50) came out at 0.49 nM. Molecule B10 registered a concentration for a half-maximal effect (EC50) of 0.09 nM.
